Data taken from PMC10798159.

Experiments:
human serum albumin [1] = experiment: SPR; fit kinetic; antibody as scFv; antigen as not_told; on the surface: target; avidity monovalent
macaque serum albumin [2] = experiment: as above
rat serum albumin = experiment: as above
human serum albumin [3] = experiment: ELISA; fit steady_state; antibody as scFv; antigen as not_told; on the surface: target; avidity monovalent
macaque serum albumin [4] = experiment: as above

Work on SON-1210 yielded a Kd (human serum albumin [1]; pH 5.8) of 500 nM, a Kd (human serum albumin [1]; pH 7.4) of 800 nM and a Kd (macaque serum albumin [2]; pH 5.8) of 900 nM. The Kd (macaque serum albumin [2]; pH 7.4) was 2300 ± 400 nM, the Kd (rat serum albumin; pH 5.8) was 5400 ± 1920 nM and the Kd (rat serum albumin; pH 7.4) was 12900 ± 5100 nM. The Kd (human serum albumin [3]; pH 6.2) was 80 ± 10 nM, the Kd (human serum albumin [3]; pH 7.4) was 60 ± 30 nM and the Kd (macaque serum albumin [4]; pH 6.2) was 600 ± 300 nM. The Kd (macaque serum albumin [4]; pH 7.4) was 400 ± 200 nM.
